Data set [1] deals with YB-1 (full length) (UniProt P67809 1-324). The data set is described as follows: fluorescence melting; 130 mM KCl, 30 C; 10:1 protein:DNA; opening of hairpin; NMR: 25 mM phosphate pH 6.8, 25 mM KCl, 298 K, 50-100 uM protein; EMSA: 20 mM HEPES pH 7.5, 60 mM KCl, room temperature; melting: 10 mM HEPES-KOH pH 7.6, 130 mM KCl, 30 C. To be noted: protein: recombinant, tags: His tag (Ni-NTA), label: 5' FAM, 3' BHQ1. (In general: A gel shift assay detects complexes by their altered migration in electrophoresis.)

Data set [2] has as its target T1, YB-1C (UniProt P67809 1-180). The experiment in a line: fluorescence melting; 130 mM KCl, 30 C; 10:1 protein:DNA; NMR: 25 mM phosphate pH 6.8, 25 mM KCl, 298 K, 50-100 uM protein; EMSA: 20 mM HEPES pH 7.5, 60 mM KCl, room temperature; melting: 10 mM HEPES-KOH pH 7.6, 130 mM KCl, 30 C. Particulars: protein: recombinant; tags: His tag (Ni-NTA); label: 5' FAM, 3' BHQ1; hairpin.

The target in data set [3] is T1, YB-1C. The experiment in a line: NMR (1H-15N HSQC); multiple peaks; NMR: 25 mM phosphate pH 6.8, 25 mM KCl, 298 K, 50-100 uM protein; EMSA: 20 mM HEPES pH 7.5, 60 mM KCl, room temperature; melting: 10 mM HEPES-KOH pH 7.6, 130 mM KCl, 30 C. Particulars: protein: recombinant; tags: His tag (Ni-NTA); hairpin, 10 bp stem, 4 nt loop.
The target in data set [4] is T2, YB-1-KY (UniProt P67809 1-180, K137A;Y138A). The experiment in a line: NMR (1H-15N HSQC); no multiple peaks; stem not destabilized; NMR: 25 mM phosphate pH 6.8, 25 mM KCl, 298 K, 50-100 uM protein; EMSA: 20 mM HEPES pH 7.5, 60 mM KCl, room temperature; melting: 10 mM HEPES-KOH pH 7.6, 130 mM KCl, 30 C. To be noted: protein: recombinant; tags: His tag (Ni-NTA); hairpin, 10 bp stem, 4 nt loop.

In data set [5] the target is T3, YB-1-RK (UniProt P67809 1-180, R97A;K98A). The description is as above. To be noted: protein: recombinant; tags: His tag (Ni-NTA); hairpin, 10 bp stem, 4 nt loop.
The target of data set [6] is T1, YB-1C. The data set is described as follows: NMR (1H imino and 1H-15N HSQC); multiple peaks at 1:1, lost at 0.25:1; NMR: 25 mM phosphate pH 6.8, 25 mM KCl, 298 K, 50-100 uM protein; EMSA: 20 mM HEPES pH 7.5, 60 mM KCl, room temperature; melting: 10 mM HEPES-KOH pH 7.6, 130 mM KCl, 30 C. To be noted: protein: recombinant; tags: His tag (Ni-NTA); hairpin, 10 bp stem, 4 nt loop.

The target of data set [7] is FUS RRM (UniProt P35637 275-385). The experiment in a line: NMR; CSPs (data not shown); no stem opening at 1.75:1; NMR: 25 mM phosphate pH 6.8, 25 mM KCl, 298 K, 50-100 uM protein; EMSA: 20 mM HEPES pH 7.5, 60 mM KCl, room temperature; melting: 10 mM HEPES-KOH pH 7.6, 130 mM KCl, 30 C. Particulars: protein: recombinant; hairpin, 10 bp stem, 4 nt loop.
Data set [8] deals with T1, YB-1C. The experiment in a line: NMR (1H-15N HSQC); single peaks; NMR: 25 mM phosphate pH 6.8, 25 mM KCl, 298 K, 50-100 uM protein; EMSA: 20 mM HEPES pH 7.5, 60 mM KCl, room temperature; melting: 10 mM HEPES-KOH pH 7.6, 130 mM KCl, 30 C. To be noted: protein: recombinant; tags: His tag (Ni-NTA).
The target in data set [9] is T2, YB-1-KY. The data set is described as follows: NMR (1H-15N HSQC); CSD binding unaffected vs wild type; NMR: 25 mM phosphate pH 6.8, 25 mM KCl, 298 K, 50-100 uM protein; EMSA: 20 mM HEPES pH 7.5, 60 mM KCl, room temperature; melting: 10 mM HEPES-KOH pH 7.6, 130 mM KCl, 30 C. Particulars: protein: recombinant; tags: His tag (Ni-NTA).
In data set [10] the target is T3, YB-1-RK. The description is as above. To be noted: protein: recombinant; tags: His tag (Ni-NTA).

T1 sequence (P67809 1-180): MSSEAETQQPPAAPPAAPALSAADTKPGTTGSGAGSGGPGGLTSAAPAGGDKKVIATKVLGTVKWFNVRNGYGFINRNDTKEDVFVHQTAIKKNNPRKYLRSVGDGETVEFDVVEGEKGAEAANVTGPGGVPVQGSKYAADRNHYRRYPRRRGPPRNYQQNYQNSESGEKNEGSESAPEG
T2 sequence (P67809 1-180 K137A/Y138A): as the sequence (P67809 1-180) above, with K137A, Y138A counted along it
T3 sequence (P67809 1-180 R97A/K98A): as the sequence (P67809 1-180) above, with R97A, K98A counted along it
Chain of YB-1 (full length) (P67809 whole entry): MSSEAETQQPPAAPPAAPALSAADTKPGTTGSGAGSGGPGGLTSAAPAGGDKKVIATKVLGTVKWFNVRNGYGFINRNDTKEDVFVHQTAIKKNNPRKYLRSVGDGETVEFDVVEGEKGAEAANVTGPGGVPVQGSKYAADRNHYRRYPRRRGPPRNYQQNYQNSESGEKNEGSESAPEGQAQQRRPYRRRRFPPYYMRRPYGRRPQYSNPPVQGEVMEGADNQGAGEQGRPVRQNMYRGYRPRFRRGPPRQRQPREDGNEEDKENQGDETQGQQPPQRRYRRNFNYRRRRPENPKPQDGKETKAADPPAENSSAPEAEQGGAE
Chain of FUS RRM (P35637 275-385): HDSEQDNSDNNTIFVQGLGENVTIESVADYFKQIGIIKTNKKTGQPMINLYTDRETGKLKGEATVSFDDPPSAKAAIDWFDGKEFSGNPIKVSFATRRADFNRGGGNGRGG

B1: DNA1 hairpin (structured_DNA)
DNA: GGGGGGGGTTAACCCCCCCC
As to B1, the binding result in data set [1] and in data set [2] was “binds” throughout.

B2: ACU-4G RNA stem/loop (structured_RNA)
RNA: ACAGACAGAACCCCUUCUGUCUGU
For B2, the binding result in data set [3], in data set [4] and in data set [5] was “binds” in each case.

B3: ACT-4G DNA stem/loop (structured_DNA)
DNA: ACAGACAGAACCCCTTCTGTCTGT
As to B3, the binding result in [6] and in data set [7] was “binds” throughout.

B4: T10 (ssDNA)
DNA: TTTTTTTTTT
In the case of B4, in data set [8], the binding result was “binds”.

B5: A10 (ssDNA)
DNA: AAAAAAAAAA
Regarding B5, in data set [8], the binding result is given as “binds”.

B6: C10 (ssDNA)
DNA: CCCCCCCCCC
Take B6: the binding result in data set [9], in [10] and in [8] was “binds” in each case.

The values are drawn from publication PMC8464072, “YB-1 unwinds mRNA secondary structures in vitro and negatively regulates stress granule assembly in HeLa cells”.
